Measured values reported in US12358963B2, “Regenerative polypeptides and uses thereof” (Juvena Therapeutics, Inc., priority 2019, dated 2025).

Tests used:
[1] = test system: mouse myoblast cells; experiment: Mouse myoblast proliferation assay (EdU); assay type: cell-based; details: for % EdU / Ave. + EdU Count: 48h; for % EdU: vehicle 3.14; for Ave. + EdU Count: FM 165
Description: FIG. 5A) Bar graph quantitation of % EdU+ mouse myoblast in response to BMP7. Myoblast were cultured 48h in the presence of BMP7 at indicated dose. Fresh media and BMP7 was added every 24h, followed by 2 hour EdU pulse and fixation. Mean∓S.D. Significant p-values (Vehicle˜BMP7 0.025 ug/mL: 1.21E-07, Vehicle˜BMP7 0.075 ug/mL: 8.05E-07, Vehicle˜BMP7 0.2255 ug/mL: 3.37E-03, Vehicle˜BMP7 0.9 ug/mL: 4.99E-02). FIG. 5B) Bar graph quantitation of % EdU+ human myoblast (person) in response to BMP7. Myoblast were cultured 72h in the presence of BMP7 at indicated dose. Cells were pulsed with EdU for 4 hours before fixation. Mean∓S.D. Significant p-values (Vehicle˜BMP7 1.56 ng/mL: 0.04). (*p<0.05 by Welch's One-Tailed T-test, n=2)
FIG. 6A) Bar graph of % EdU+ mouse myoblast cells compared to vehicle. Mouse myoblast were cultured 48h in the presence of indicated factors, followed by a 2 hour EdU pulse prior to fixation. Mean∓S.D. Significant p-values (FM˜BMP7: 0.008 ug/mL: 3.17E-02, FM˜Leucine: 300 uM BMP7: 0.008 ug/mL: 2.77E-03, FM˜Leucine: 100 uM BMP7: 0.008 ug/mL: 3.72E-05, FM˜Leucine: 900 uM BMP7: 0.008 ug/mL: 2.52E-03). (*p<0.05 by One-Way ANOVA Tukey Honest Significant Difference, n=2-6)
FIG. 7A: Bar graph of % EdU+ mouse myoblast cells compared to vehicle. Mouse myoblast were cultured 48h in the presence of indicated factors. EdU pulse and fixation. Mean∓S.D. (*p<0.05 by Student's One-Tailed T-Test of increased activity, n=2-6)
FIG. 10A) The suspension CHO cells were transiently transfected with either the empty control plasmid or the FGF17-hFcm encoding plasmid. After four days, the culture supernatants were collected and added into the culture of mouse myoblast cells for 48 hours, followed by a 2 hour EdU pulse prior to fixation. […] FIG. 10B) The suspension CHO cells were transiently transfected with the FGF17-hFcm encoding plasmid. After four days, the culture supernatants were collected and FGF17-hFcm was affinity-purified by Protein A membrane column. The purified FGF17-hFcm was added into the culture of mouse myoblast cells for 48 hours, followed by a 2 hour EdU pulse and fixation.
FIG. 11A: SDS-PAGE of culture supernatants from CHO cells transiently transfected with FGF17-hFcm or its mutants encoding plasmids (FGF17d181-216-hFcm, FGF17d204-216-hFcm, FGF17R204QK207Q-hFcm). The expressed FGF17-hFcm proteins and the mutant proteins were indicated by the white arrowheads. FIG. 11B) The culture supernatants from CHO cells transiently transfected with different FGF17 encoding plasmids were added into the culture of mouse myoblast cells for 48 hours followed by 2 hour EdU pulse and fixation.
FIG. 12A) SDS-PAGE of culture supernatants from CHO cells transiently transfected with FGF17-hFcm or its mutants encoding plasmids (FGF17d197-216-hFcm, FGF17K191AK193AS200A-hFcm). The expressed FGF17-hFcm proteins and the mutant proteins were indicated by the white arrowheads. FIG. 12B) The culture supernatants from CHO cells transiently transfected with different FGF17 encoding plasmids were added into the culture of mouse myoblast cells for 48 hours, followed by 2 hour EdU pulse and fixation.
FIG. 14A: Bar graph of % EdU+ mouse myoblast cells compared to vehicle. Myoblast were cultured 48h in the presence of indicated factors. Fresh media and factors were added every 24h, followed by 2 hour EdU pulse and fixation. Mean∓S.D. Table quantitation of % EdU and p-values (*p<0.05 by One-Way ANOVA Tukey Honest Significant Difference, n=2-6)
FIG. 15A: Bar graph of % EdU+ mouse myoblast cells compared to vehicle. Myoblast were cultured 48h in the presence of indicated factors. Fresh media and factors were added every 24h, followed by 2 hour EdU pulse and fixation. Mean∓S.D. Table quantitation of % EdU and p-values shown. (*p<0.05 by Student's One-Tailed T-Test of increased activity, n=2-6)
Bar graph of total EdU+ mouse myoblast cells compared per condition. Myoblast were cultured 48h in the presence of indicated factors. […]

[2] = test system: aged human myoblast cell lines; experiment: Myogenic gene RNA expression in aged human myoblasts by real-time qPCR; assay type: cell-based
Description: Myogenic gene RNA expression (fold change to FM) in response to vehicle (FM) in mouse myoblast cell lines monitored by real-time qPCR. Myoblast were cultured 48h in fusion media. Mean±SD. n=3. (Y,Z) Differential induction of myogenic gene expression by FGF17 in human myoblast myoblasts. Quantitation table of myogenic gene RNA expression (fold change to FM-fusion media (DMEM+2% horse serum)) in response to FM or rh-FGF17 in aged human myoblast cell lines by real-time qPCR. Myoblast were cultured (B) 48 hours or (C) 72 hours in FM. Mean∓SD. n=3.
RNA was isolated from each well (RNeasy Mini Kit, Qiagen) and cDNA was obtained by reverse-transcription (High Capacity Reverse Transcription Kit, Thermo Fisher Scientific). Real-time quantitative PCR was performed using QuantStudio3 (Thermo Fisher).
Aged human myoblasts were cultured in well plates. […] Cells that had been cultured with IGF2 had increases in levels of MYOG at 48 hours and levels of MYOD at 72 hours.

[3] = test system: 78 weeks old mice; experiment: BaCl2 muscle injury in old mice, intramuscular FGF17; assay type: in vivo, mouse; details: FGF17 500 ng/mL intramuscular 2h and 48h after BaCl2 injury
Description: FIG. 16A) Experiment overview. Intramuscular injection of 1.2% of BaCl2 (7 ul/TA) was used to generate chemical injury in the TAs of 78 weeks old mice. FGF17 (500 ng/mL) was administered via intramuscular injection after 2h and 48h of muscle injury. FIG. 16B) Quantification of the regenerative index calculated as the number of newly regenerated fibers per mm 2 of injury area. Regenerated fibers were identified as fibers with central nuclei,****p<0.0001 (unpaired t-test). FIG. 16C) Histogram showing the fibrotic index calculated as the percentage of the fibrotic area. *p=0.0186 (unpaired t-test).

B1: FGF17: FGF17 polypeptide, FGFR agonist (protein, listed as Homo sapiens)
chain: TQGENHPSPNFNQYVRDQGAMTDQLSRRQIREYQLYSRTSGKHVQVTGRRISATAEDGNKFAKLIVETDTFGSRVRIKGAESEKYICMNKRGKLIGKPSGKSKDCVFTEIVLENNYTAFQNARHEGWFMAFTRQGRPRQASRSRQNQREAHFIKRLYQGQLPFPNHAEKQKQFEFVGSAPTRRTKRTRRPQPLT
- % EdU ([1]; FGF17 0.0062 ug/mL): 4.81%
- Ave. + EdU Count ([1]; FGF17 0.01 ug/mL): 476
- % EdU ([1]; FGF17 0.0125 ug/mL): 3.02%
- % Edu ([1]; FGF17 0.025 ug/mL, 48h (HA experiment), FM 11.162): 17.870%
- % EdU ([1]; FGF17 0.025 ug/mL): 3.85%
- Ave. + EdU Count ([1]; FGF17 0.1 ug/mL): 1618
- MYOD1 RNA expression (fold change to FM) ([2]; 48 hr, FM 1.001): 0.604
- MYOG RNA expression (fold change to FM) ([2]; 48 hr, FM 1.013): 2.353
- MYF5 RNA expression (fold change to FM) ([2]; 48 hr, FM 1.04): 1.922
- MYF5 RNA expression (fold change to FM) ([2]; 72 hr, FM 1.023): 0.499
- MYOD1 RNA expression (fold change to FM) ([2]; 72 hr, FM 1.055): 1.627
- MYOG RNA expression (fold change to FM) ([2]; 72 hr, FM 1.092): 13.124
- Fibrotic index [3]: reducing fibrosis
- Muscle regeneration (regenerative index) [3]: Promoted the Regeneration of Muscle
